Test results reported in article PMC6299665 (Journal for Immunotherapy of Cancer, 2018).

How the values were obtained:
[1] = biological target: T1, human OX40, histidine-tagged recombinant (human, UniProt P43489 29-214); test: SPR
T1 chain: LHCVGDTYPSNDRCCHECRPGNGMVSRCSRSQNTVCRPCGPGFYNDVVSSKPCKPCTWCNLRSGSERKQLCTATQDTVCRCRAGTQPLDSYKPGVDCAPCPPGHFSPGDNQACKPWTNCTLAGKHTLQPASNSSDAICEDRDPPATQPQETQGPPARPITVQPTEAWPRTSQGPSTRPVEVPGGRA

[2] = biological target: T2, human OX40, histidine-tagged recombinant (human, UniProt P43489 29-214); test: SPR; BioRAD ProteOn XPR36; His-tagged targets immobilised on Ni-activated HTG chip; analyte in PBS/Tween (0.005%) pH 7.0, 3 min injection, 5 min dissociation, flow 80-100 μl/min; details: both partners purified
T2 construct: OX40, human, recombinant; also called hOX40-His; source: bought: Acro Biosystems (SPR); for the ELISAs the vendor is one of Jackson ImmunoResearch, Sino Biological, Acro Biosystems, R&D Systems
T2 sequence (looked up): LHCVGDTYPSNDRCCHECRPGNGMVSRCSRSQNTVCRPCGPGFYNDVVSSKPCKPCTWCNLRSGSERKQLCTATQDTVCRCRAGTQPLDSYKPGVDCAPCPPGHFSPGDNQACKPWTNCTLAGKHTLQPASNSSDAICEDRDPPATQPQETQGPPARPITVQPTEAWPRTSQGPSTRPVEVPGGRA

B1: recombinant human OX40L-Fc (Fc fusion, UniProt P23510 51-183, looked up)
chain: QVSHRYPRIQSIKVQFTEYKKEKGFILTSQKEDEIMKVQNNSVIINCDGFYLISLKGYFSQEVNISLHYQKDEEPLFQLKKVRSVNSLMVASLTYKDKVYLNVTTDNTSLDDFHVNGGELILIHQNPGEFCVL
notes: OX40L, human, recombinant Fc fusion; The background says in general that in OX40L-Fc proteins the Fc precedes OX40L; also called hOX40L-Fc; Fc-OX40L; source: bought: Acro Biosystems
[1]
  koff: 0.00069 s⁻¹
[2]
  Kd: 9.28 nM
